According to publication PMC5414417:

Assays:
[1] = biological target: 3xFLAG-TMEM24(76-260) (human) (UniProt O14523); assay: native MS
[2] = biological target: TMEM24 SMP domain (residues 76 to 260) (human) (UniProt O14523); assay: SEC

| Substance | stoichiometry N [1] | stoichiometry N [2] |
| --- | --- | --- |
| 3xFLAG-TMEM24(76-260) (from UniProt O14523 76-260) (domain or fragment) | 2 |  |
| TMEM24 SMP domain (residues 76 to 260) (from UniProt O14523 76-260) (domain or fragment) |  | 2 |
